For experiment [1], the target named is soluble human neonatal Fc receptor (FcRn) (human) (UniProt P55899). As to the kind of experiment: BLI; Octet-Red96, biotin-labeled human FcRn on streptavidin tips, Fc proteins 10 to 0.625 µM as analytes, PBS with 0.02% Tween 20, pH 6.0, 37°C, 1:1 model. Background: In BLI a coated tip is dipped into the sample, and binding shifts an interference pattern.
Experiment [2] has as its target FcRn (Homo sapiens) (UniProt P55899). Particulars: cited from earlier work.
The target of experiment [3] is 1-D1-15 (Fc mutant, monomer/dimer mixture) T366H; Leu368 unchanged; Leu351 not mutated to Ser; position 395 is Lys or Arg by library design; residues at 409, 428 and 434 not stated in the text (Figure 2B only) (UniProt P01857). As to the kind of experiment: Bio-layer interferometry (Octet-Red96, Pall ForteBio). Particulars: pH 6.0; 37°C; PBS (composition not stated); PBS adjusted to pH 6.0 or pH 7.4 (same buffer at both pH).

For experiment [4], the target named is 1-B10-9 (new monomeric IgG1 Fc) T366R;L368H;P395K;K409T;M428L (UniProt P01857). Described as above. As to conditions: pH 6.0; 37°C; PBS (composition not stated); PBS adjusted to pH 6.0 or pH 7.4 (same buffer at both pH).
Experiment [5] addresses mFc (previously reported monomeric IgG1 Fc) L351S;T366R;L368H;P395K (UniProt P01857). The experiment is described as above. As to conditions: pH 6.0; 37°C; PBS (composition not stated); PBS adjusted to pH 6.0 or pH 7.4 (same buffer at both pH).
Experiment [6] addresses wild-type IgG1 Fc (dimeric) (UniProt P01857). Described as above. Particulars: pH 6.0; 37°C; PBS (composition not stated); PBS adjusted to pH 6.0 or pH 7.4 (same buffer at both pH).

Chain of soluble human neonatal Fc receptor (FcRn) (human) (P55899 24-297, chain 1 of 2): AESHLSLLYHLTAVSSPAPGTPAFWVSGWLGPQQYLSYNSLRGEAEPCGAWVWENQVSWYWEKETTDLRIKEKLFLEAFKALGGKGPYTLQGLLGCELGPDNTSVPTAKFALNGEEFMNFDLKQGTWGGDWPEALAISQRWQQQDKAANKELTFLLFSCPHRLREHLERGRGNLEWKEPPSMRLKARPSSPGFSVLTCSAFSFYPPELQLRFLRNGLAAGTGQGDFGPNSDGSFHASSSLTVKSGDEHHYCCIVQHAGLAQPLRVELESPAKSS
Chain of soluble human neonatal Fc receptor (FcRn) (human) (P61769 21-119, chain 2 of 2, further chain): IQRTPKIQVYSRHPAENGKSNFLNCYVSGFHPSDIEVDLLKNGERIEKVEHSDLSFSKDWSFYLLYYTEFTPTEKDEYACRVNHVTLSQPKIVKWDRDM
Chain of FcRn (Homo sapiens) (P55899 24-365, chain 1 of 2): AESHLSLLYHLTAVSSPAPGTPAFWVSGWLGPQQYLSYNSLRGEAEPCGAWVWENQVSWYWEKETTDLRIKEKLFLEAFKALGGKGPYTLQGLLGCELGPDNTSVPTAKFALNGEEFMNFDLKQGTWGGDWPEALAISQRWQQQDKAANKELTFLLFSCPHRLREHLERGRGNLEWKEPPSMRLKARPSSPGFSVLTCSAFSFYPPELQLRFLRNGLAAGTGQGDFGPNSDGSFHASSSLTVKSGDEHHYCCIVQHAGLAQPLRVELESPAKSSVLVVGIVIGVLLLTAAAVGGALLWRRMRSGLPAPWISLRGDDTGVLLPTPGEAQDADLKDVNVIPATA
Chain of FcRn (Homo sapiens) (partner, as listed by the source, chain 2 of 2): as the sequence (P61769 21-119, chain 2 of 2, further chain) above

The term Kd denotes a measure of binding affinity in units of concentration. For orientation: koff means the first-order rate constant of dissociation. The term kon denotes a measure of how fast the partners come together. In experiment [1], “wild-type dimeric IgG1 Fc (domain or fragment)” returned a Kd of 260 nM, an off-rate constant (koff) of 0.0003 s⁻¹ and an on-rate (kon) of 1100 M⁻¹ s⁻¹.

For IgG1 Fc Fc (from UniProt P01857), in experiment [2], the Kd is 110 nM.

Consider “neonatal Fc receptor (FcRn), soluble, biotinylated”, for which the association rate constant (kon) worked out at 3800 M⁻¹ s⁻¹ in experiment [3], 1100 M⁻¹ s⁻¹ in experiment [4], 1200 M⁻¹ s⁻¹ in experiment [5] and 1100 M⁻¹ s⁻¹ in experiment [6]. Further, the off-rate constant (koff) turned out to be 0.00056 s⁻¹ in experiment [4], 0.00064 s⁻¹ in experiment [5] and 0.0003 s⁻¹ in experiment [6].
